Data set [1] deals with H3K9me3 mononucleosome (UniProt P68431). The data set is described as follows: native gel or EMSA.
Data set [2] deals with the molecule itself. The data set is described as follows: cross-linking.

In data set [1], “Swi6^2XCD-GST (recombinant, 6XHis tag cleaved)” yielded a fold increase in H3K9me3 nucleosome binding specificity against WT Swi6 of 2 fold.

B1: 3XFLAG-Swi6 (natural protein, S. pombe, UniProt P40381 1-328, looked up)
chain: MKKGGVRSYRRSSTSKRSVIDDDSEPELPSMTKEAIASHKADSGSSDNEVESDHESKSSSKKLKENAKEEEGGEEEEEDEYVVEKVLKHRMARKGGGYEYLLKWEGYDDPSDNTWSSEADCSGCKQLIEAYWNEHGGRPEPSKRKRTARPKKPEAKEPSPKSRKTDEDKHDKDSNEKIEDVNEKTIKFADKSQEEFNENGPPSGQPNGHIESDNESKSPSQKESNESEDIQIAETPSNVTPKKKPSPEVPKLPDNRELTVKQVENYDSWEDLVSSIDTIERKDDGTLEIYLTWKNGAISHHPSTITNKKCPQKMLQFYESHLTFRENE
Turning to B1, the binding result in data set [2] was “binds”.

The record behind these values is publication PMC9269880 (Science Advances, 2022).
